According to the supplement of paper PMC11246515:
± gives the standard deviation of the averaged measurements.

Experiment: total protein half-life in vivo (active degradation + dilution); higher = more stable protein
[1] = E. coli NCM3722 delta-hslV, growth: N-lim chemostat, doubling time 6 h
[2] = E. coli NCM3722 delta-smpB, growth: N-lim chemostat, doubling time 6 h
[3] = wild type E. coli NCM3722, growth: C-lim chemostat, doubling time 3 h
[4] = wild type E. coli NCM3722, growth: C-lim chemostat, doubling time 6 h
[5] = wild type E. coli NCM3722, growth: C-lim chemostat, doubling time 12 h
[6] = wild type E. coli NCM3722, growth: N-lim chemostat, doubling time 6 h
[7] = wild type E. coli NCM3722, growth: N-lim chemostat, doubling time 12 h
[8] = wild type E. coli NCM3722, growth: P-lim chemostat, doubling time 6 h
[9] = wild type E. coli NCM3722, growth: P-lim chemostat, doubling time 12 h
[10] = E. coli NCM3722 delta-clpP delta-lon delta-hslV, growth: N-lim chemostat, doubling time 6 h
[11] = E. coli NCM3722 delta-lon, growth: N-lim chemostat, doubling time 6 h

Sequence	total protein half-life in vivo [1] [h]	total protein half-life in vivo [2] [h]	total protein half-life in vivo [3] [h]	total protein half-life in vivo [4] [h]	total protein half-life in vivo [5] [h]	total protein half-life in vivo [6] [h]	total protein half-life in vivo [7] [h]	total protein half-life in vivo [8] [h]	total protein half-life in vivo [9] [h]	total protein half-life in vivo [10] [h]	total protein half-life in vivo [11] [h]	total protein half-life in vivo (E. coli NCM3722 delta-clpP, growth: N-lim chemostat, doubling time 6 h) [h]
MKKLFIQFYLLLFVCFLVMSLLVGLVYKFTAERAGKQSLDDLMNSSLYLMRSELREIPPHDWGKTLKEMDLNLSFDLRVEPLSKYHLDDISMHRLRGGEIVALDDQYTFLQRIPRSHYVLAVGPVPYLYYLHQMRLLDIALIAFIAISLAFPVFIWMRPHWQDMLKLEAAAQRFGDGHLNERIHFDEGSSFERLGVAFNQMADNINALIASKKQLIDGIAHELRTPLVRLRYRLEMSDNLSAAESQALNRDISQLEALIEELLTYARLDRPQNELHLSEPDLPLWLSTHLADIQAVTPDKTVRIKTLVQGHYAALDMRLMERVLDNLLNNALRYCHSTVETSLLLSGNRATLIVEDDGPGIAPENREHIFEPFVRLDPSRDRSTGGCGLGLAIVHSIALAMGGTVNCDTSELGGARFSFSWPLWHNIPQFTSA	6.14 ± 0.51	6.03 ± 0.18	2.755 ± 0.017	6.26	12.5 ± 4.9	6.3	10.1 ± 2.2	5.97 ± 0.2	11.4 ± 0.61			
MKKLILIAIMASGLVACAQSTAPQEDSRLKEAYSACINTAQGSPEKIEACQSVLNVLKKEKQHQQFADQESVRVLDYQQCLRATQTGNDQAVKADCDKVWQEIRSNNK		5.85			9.68 ± 2.6		> 16					
MKKLLPILIGLSLSGFSSLSQAENLMQVYQQARLSNPELRKSAADRDAAFEKINEARSPLLPQLGLGADYTYSNGYRDANGINSNATSASLQLTQSIFDMSKWRALTLQEKAAGIQDVTYQTDQQTLILNTATAYFNVLNAIDVLSYTQAQKEAIYRQLDQTTQRFNVGLVAITDVQNARAQYDTVLANEVTARNNLDNAVEQLRQITGNYYPELAALNVENFKTDKPQPVNALLKEAEKRNLSLLQARLSQDLAREQIRQAQDGHLPTLDLTASTGISDTSYSGSKTRGAAGTQYDDSNMGQNKVGLSFSLPIYQGGMVNSQVKQAQYNFVGASEQLESAHRSVVQTVRSSFNNINASISSINAYKQAVVSAQSSLDAMEAGYSVGTRTIVDVLDATTTLYNAKQELANARYNYLINQLNIKSALGTLNEQDLLALNNALSKPVSTNPENVAPQTPEQNAIADGYAPDSPAPVVQQTSARTTTSNGHNPFRN	7.27 ± 0.62	6.09 ± 0.28	3.15 ± 0.091	6.46 ± 0.065	12.5 ± 0.56	5.95 ± 0.79	13.3 ± 0.99	5.09 ± 0.13	10.7 ± 0.21	6.4 ± 0.68	6.96 ± 0.25	
MKKLQIAVGIIRNENNEIFITRRAADAHMANKLEFPGGKIEMGETPEQAVVRELQEEVGITPQHFSLFEKLEYEFPDRHITLWFWLVERWEGEPWGKEGQPGEWMSLVGLNADDFPPANEPVIAKLKRL	4.58 ± 0.57	5.16 ± 1.3	3.35 ± 0.21	5.04 ± 0.078	9.03 ± 0.32	4.16 ± 0.41	6.87 ± 0.51	4.48 ± 0.6	11 ± 1.5	4.64 ± 0.53	5.1	
MKKLRIGVVGLGGIAQKAWLPVLAAASDWTLQGAWSPTRAKALPICESWRIPYADSLSSLAASCDAVFVHSSTASHFDVVSTLLNAGVHVCVDKPLAENLRDAERLVELAARKKLTLMVGFNRRFAPLYGELKTQLATAASLRMDKHRSNSVGPHDLYFTLLDDYLHVVDTALWLSGGKASLDGGTLLTNDAGEMLFAEHHFSAGPLQITTCMHRRAGSQRETVQAVTDGALIDITDMREWREERGQGVVHKPIPGWQSTLEQRGFVGCARHFIECVQNQTVPQTAGEQAVLAQRIVDKIWRDAMSE	5.7 ± 0.25	4.86 ± 0.11	3.12 ± 0.51	5.88 ± 0.12	11 ± 0.34	4.96 ± 0.26	9.402 ± 0.04	6.2 ± 0.17	12 ± 0.19	5.47 ± 0.24	6.04 ± 0.96	5.38 ± 1.1
MKKLTIGLIGNPNSGKTTLFNQLTGSRQRVGNWAGVTVERKEGQFSTTDHQVTLVDLPGTYSLTTISSQTSLDEQIACHYILSGDADLLINVVDASNLERNLYLTLQLLELGIPCIVALNMLDIAEKQNIRIEIDALSARLGCPVIPLVSTRGRGIEALKLAIDRYKANENVELVHYAQPLLNEADSLAKVMPSDIPLKQRRWLGLQMLEGDIYSRAYAGEASQHLDAALARLRNEMDDPALHIADARYQCIAAICDVVSNTLTAEPSRFTTAVDKIVLNRFLGLPIFLFVMYLMFLLAINIGGALQPLFDVGSVALFVHGIQWIGYTLHFPDWLTIFLAQGLGGGINTVLPLVPQIGMMYLFLSFLEDSGYMARAAFVMDRLMQALGLPGKSFVPLIVGFGCNVPSVMGARTLDAPRERLMTIMMAPFMSCGARLAIFAVFAAAFFGQNGALAVFSLYMLGIVMAVLTGLMLKYTIMRGEATPFVMELPVYHVPHVKSLIIQTWQRLKGFVLRAGKVIIIVSIFLSAFNSFSLSGKIVDNINDSALASVSRVITPVFKPIGVHEDNWQATVGLFTGAMAKEVVVGTLNTLYTAENIQDEEFNPAEFNLGEELFSAIDETWQSLKDTFSLSVLMNPIEASKGDGEMGTGAMGVMDQKFGSAAAAYSYLIFVLLYVPCISVMGAIARESSRGWMGFSILWGLNIAYSLATLFYQVASYSQHPTYSLVCILAVILFNIVVIGLLRRARSRVDIELLATRKSVSSCCAASTTGDCH	0.616	0.941 ± 0.47	0.812 ± 0.12	0.749	1.58 ± 0.19	0.841			4.22			
MKKLTVAALAVTTLLSGSAFAHEAGEFFMRAGSATVRPTEGAGGTLGSLGGFSVTNNTQLGLTFTYMATDNIGVELLAATPFRHKIGTRATGDIATVHHLPPTLMAQWYFGDASSKFRPYVGAGINYTTFFDNGFNDHGKEAGLSDLSLKDSWGAAGQVGVDYLINRDWLVNMSVWYMDIDTTANYKLGGAQQHDSVRLDPWVFMFSAGYRF [P0A915]	6.45 ± 0.39	6.21 ± 1.9	3.53 ± 0.14	7.52 ± 0.61	12.6 ± 1.5	7.26	> 16	6.15	15.44 ± 0.068	6.65 ± 0.21		
